From publication PMC3630055, “Bovine HEXIM1 inhibits bovine immunodeficiency virus replication through regulating BTat-mediated transactivation” (Veterinary Research, 2013) come the findings set out here.

The experiment addresses T1, His-BHEXIM1 (bovine, UniProt Q0X0C4 1-320).
T1 construct: bovine HEXIM1 (320 amino acids); pETH vector; the only BHEXIM1 cDNA described was amplified from the start to the stop codon (320 aa), so the construct is probably whole; also called purified BHEXIM1 protein; source: E. coli BL21 (DE3), purified (His Sepharose 6)
T1 sequence (looked up): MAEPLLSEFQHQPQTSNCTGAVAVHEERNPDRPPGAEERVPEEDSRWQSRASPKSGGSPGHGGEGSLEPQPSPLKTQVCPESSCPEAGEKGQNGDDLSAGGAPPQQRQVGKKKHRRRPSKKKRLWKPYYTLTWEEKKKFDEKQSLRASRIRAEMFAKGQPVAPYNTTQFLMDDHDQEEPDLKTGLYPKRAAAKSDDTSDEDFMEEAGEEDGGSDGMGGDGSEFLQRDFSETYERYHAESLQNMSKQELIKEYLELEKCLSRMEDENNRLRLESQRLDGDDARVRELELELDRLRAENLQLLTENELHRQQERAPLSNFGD
As to the kind of experiment: pull-down; purified GST or GST-B-cyclin T1 immobilised on glutathione Sepharose 4B beads, incubated with purified His-fusion proteins; anti-His immunoblot; in the competition 20 μg GST-B-cyclin T1, 5 μg His-BTat and 1, 5, 10, 20 μg His-BHEXIM1. As to conditions: both partners purified. For orientation: Immunoblotting shows a protein as a band on a membrane.

B1: GST-B-cyclin T1 (aa 1-272) (domain or fragment, bovine, UniProt Q6T8E9 1-272, looked up)
chain: MEGERKNNNKRWYFTREQLENSPSRRFGLDPDKELSNRQQAANLLQDMGQRLNVSQLTINTAIVYMHRFYMIQSFTQFHRNSVAPAALFLAAKVEEQPKKLEHVIKVAHTCLHPQESLPDTRSEAYLQQVQDLVILESIILQTLGFELTIDHPHTHVVKCTQLVRASKDLAQTSYFMATNSLHLTTFSLQYTPPVVACVCIHLACKWSNWEIPVSTDGKHWWEYVDATVTLELLDELTHEFLQILEKTPNRLKRIWNWRAWQADRKTKADDR
notes: bovine cyclin T1, residues 1-272; pGEX6p-1 vector; source: E. coli BL21 (DE3), purified (glutathione Sepharose 4B)
Consider B1, for which the binding result was “binds”.
